Experimental data reported in PMC7889895, “Crystal structure of a photosynthetic LH1-RC in complex with its electron donor HiPIP” (Nature Communications, 2021).

Target: light-harvesting 1 - reaction center complex (LH1-RC) of Thermochromatium tepidum (Thermochromatium tepidum, UniProt D2Z0P5 23-404; D2Z0P3 1-281; A8ASG6 1-325; D2Z0P9 1-259; D2Z0P2 1-61; D2Z0P1 …)
Experiment: crystal structure; co-crystal by micro-batch under oil; HiPIP:LH1-RC mixed 15:1, LH1-RC 0.0694 mM; 30 mM sodium succinate pH 5, 20 mM CaCl2, 3.4% OPC, 30% PEG 1500; 20 °C; 2.9 Å
Details: both partners purified

stoichiometry N: 1 HiPIP per LH1-RC
B1: high-potential iron-sulfur protein (HiPIP) of Thermochromatium tepidum (natural protein, UniProt P80176 1-83, looked up)
chain: AAPANAVTADDPTAIALKYNQDATKSERVAAARPGLPPEEQHCANCQFMQANVGEGDWKGCQLFPGKLINVNGWCASWTLKAG
notes: High-potential iron-sulfur protein (HiPIP), Thermochromatium tepidum strain MC, native protein with its 4Fe-4S cluster, purified in the reduced state; Carries a 4Fe-4S cluster; also called Tch. tepidum HiPIP; source: purified from Tch. tepidum strain MC (soluble fraction of sonicated cells, DEAE column)
